The values that follow are results of earlier work, collected in publication PMC3589424.

The data set concerns the target CD47 (Homo sapiens) (UniProt Q08722).
Chain of UniProt Q08722 (Q08722 19-323): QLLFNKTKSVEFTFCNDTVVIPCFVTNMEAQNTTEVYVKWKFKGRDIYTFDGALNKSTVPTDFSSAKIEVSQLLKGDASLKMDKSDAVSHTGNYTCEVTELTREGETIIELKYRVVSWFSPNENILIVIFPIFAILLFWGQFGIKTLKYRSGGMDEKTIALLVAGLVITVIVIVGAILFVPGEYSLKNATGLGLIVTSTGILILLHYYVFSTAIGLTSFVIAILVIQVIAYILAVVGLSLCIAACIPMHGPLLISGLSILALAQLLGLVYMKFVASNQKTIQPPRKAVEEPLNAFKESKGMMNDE

As for SIRPα (from UniProt P78324), the Kd was 2 µM.

For orientation: Kd means the free concentration of one partner at which half of the binding sites on the other are occupied at equilibrium, for simple one-to-one binding.
